From the DeepSol protein solubility set

Test: soluble on expression in E. coli; label from the status in PepcDB or PDB records

Sequence	soluble on expression in E. coli
MSLNGTFEATKSCPAYLSKNRKSNPDNLMVEPNQKYQLKEINKTKPDWLRIQFSDHQPNLRWVSVDCGVIEYTERPKASCDLSPGMADSYVLALSSQPGFCETYGYEIGKPECLKLTKTVYQANHLILHGLWPNQEACGHNYGYCGISPRTNHCDYSPLDLSSDVAQNLKKLMPSYNYGSCLERHEWNKHGSCQDLSTDGYFSLAMRLTTEVNNTEFGQYLTAHRGDTVKLTTLRELIKRSFGENNTGKVTLSCKNGILVDIYVQLPALIPFKESLESLVDKASEGHHHHHH	not soluble
MLYAATRATLKKEFGGGHIKDEVFGTVKEDVSLHGYKKYLLSQSSPAPLTAAEEELRQIKINEVQTDVGVDTKHQTLQGVAFPISREAFQALEKLNNRQLNYVQLEIDIKNEIIILANTTNTELKDLPKRIPKDSARYHFFLYKHSHEGDYLESIVFIYSMPGYTCSIRERMLYSSCKSRLLEIVERQLQMDVIRKIEIDNGDELTADFLYEEVHPKQHAHKQSFAKPKGPAGKRGIRRLIRGPAETEATTD	soluble
MSSYEMFADKNIVAGELANLMASAGWGTEGDYDATAIEKSLSAYPMIAYCRDSDGLLVGYISAFTDGAFSTFVGELVVRPTYQQRGIGSALLAMIVEKCRGVPVYATPFQGTEKFFLDRGFRVPERPMSVVSMRNVT	not soluble
MGSDKIHHHHHHMNNVLILYPKLFNCYSKFSRKVLKITSSLGAATLVYPDDPNGLIEKFCEESSGKMTNKEFPNWTPDDITHAIIFDDGEEFIEETERLKESKKPLRLIGICITRVINIKTETEYQSEKSTPIYEYIGRGSYWGNPYSMFEEGEDREEVIRKYKYDFDFEKFPNKEKSEVYKLAGKRLGCFCKPQACHGDVLADFLNSWDDGK	not soluble
GSRNPNKLDINTLTGEERVPVVNKRNGKKMGGAMAPPMKDLPRWLEENPEFAVAPDWTDIVKQSGFVPESMFDRLLTGPVVRGEGAS	soluble
MGHHHHHHSHMKWASENGASVEGFEMVNFKEEGFGLRATRDIKAEELFLWVPRKLLMTVESAKNSVLGPLYSQDRILQAMGNIALAFHLLCERASPNSFWQPYIQTLPSEYDTPLYFEEDEVRYLQSTQAIHDVFSQYKNTARQYAYFYKVIQTHPHANKLPLKDSFTYEDYRWAVSSVMTRQNQIPTEDGSRVTLALIPLWDMCNHTNGLTPEDSFALAVASA	not soluble
MNIQKAHDVAPPEWLAQVREPALCPGQIIVDPHHHLWDRQGQLYLLPQFLEDQAGDHRIVSTVYVQGRAMYRAGAHALAPVGETEFARGVAAMCASGRYGETRVCDGIVAHADLTQGDGVERVLQAHVEAGGRHFKGIRHMATWDADPALMNPDVAPPPHLLGETRFRRGFAVLDRMGLVFDAWVFHPQLADVVALASAFPDTTIVLNHLGGILNTGSYAGRREAIRADWLASLRELATCPNVYLKLGGLGMRISGFDYPSRPRPPNSTELAADFAPYMLPAIDLFGPERCMFESNFPVDKRSYTYGVLWNAFKRLAADMSQAERDHLFYQTAAKAYRLNLDHIAADMAGDPLEHHHHHH	not soluble
MGSDKIHHHHHHMYELYFNWKFIWKKVGLASLTTNSTTYHSEPAYRVNLLAISSKEADFFFKMRDTLTSVMTEKLEPRYFRKGAEEGKRYTVDEARFSFRNGMCYVNQKRVRKDGSITETEQSDNRCIYDMLTILAQARSFDPKEYTIGQRIQFPMATGRRVEEQTLIYRGIKKITAENDTTYRCLIFSLVEYNKKGKEKEVITFYVTDDRNHLPVRLDMHLNFGSAKAFLKSVSGYRHPQTSIVTK	not soluble
GPGSMADSIKKHFQQENEVKDTGCMTSALSYLPIYINTDKLPENMLVGAPLFYPPQMAVLPLSWTDAVGFERSCFITCEGPFPHMTANGKDPHDMSFFFLQYMQRVPFMQSTAERGLPIKQLQDVGLLCCTDAFSHIVTDPAERVVVIFGRNGPYFTSLVITPCTMPEKNVVGNIQLANQISLQDLQKLLDACCPTPLVDEIRLAGTSAGTLQGKLHIACRYGNRVVQFTAASALTVRSARDNEDFIFSLEGDVLAQKRIVFDAATIDALISGKTLDELFSCPGPQCMRVSSLVQLIHMEDLTEISHNLGNGASNGDVTREINLKVSGSRLLLSAGEVSVVFHHAHLGVHFPINSHHGVICEPVLTTDLCLMYYPLGSTAALPNAMMRRVRQLPPTWERSLHTDDALRHNALFHFTDWMRGSVPCITCDLSGFRCAQLYEEKDGMSCRTYVVPLAEEIMVLRWETSTCDWEQHLPHLQKFIDTLHLEVPTA	not soluble
SNAMKADILLVSHSKMITDGIKEMIEQMNASEEITIHSLGGTSDGSLGSDPMKIIDTINEADSDREFLIFADLGSAVLSSELAFDMLEEDQQKHYHLVDAPLVEGAFASAITAGVSDDLTQILAEAQNAGKKGWN	soluble
MSLKAVYIQKTGGPATIIVGSLPVPKVRPKSVLIKVIAASINYVDLFIRSGIYQTDLPNPYILGRDAIGQVVEIGKDVIQFKVGDCVWTNSMGYDGRQGITSEYALIPEERLFLTPKNADSLKLIGAVHSAATATIVLQDIMELKPKQKLLIEGAAGHVGSKLVYLANEMGAEVVTTASLKDFSRLKQLSDAICFDYRDKSLFKKLKSAYPDGFDHIIDTSGEIPLQFNCDLLAPKGVISLITAPKDSQFDSRQFYMNCQQMKGFVISHASLKQLKKAGRILNDAFRQGQLLEEDMVIKKFDKAAEAHDLMETKKENRKIILVEGHHHHHH	not soluble
MGSDKIHHHHHHMTVIAVAGKGGTGKTLVSALLINFISEHTTSVLAVDADPDSNLPEALGVEKQVRKTLGEIRELFQVSRDEMGSMNKEQWLEGKIYAEAICECPRYDLLVMGRPEGEGCYCFANSLLRGVLKRLMRHYEYIIIDTEAGLEHFSRKTIDSADYIIIVTDMSRKGLATAKRIKELASELKLNFKKIFLIANRIASEDAEKTIREFAKEEGLELLAVLPYDSSVAEIDLRGEPVSKIDKNSEVYRKMKDVANLMLNLSAKAR	not soluble
MPRILFTVPPFPVFIAAGEGVFKKGETHVKRVFSVFDLIYVKQGTLYITENETSFSVEGGEYILLSPGLEHYGTKGSDEATSYYWLHFDEHRYEFTAKGGSNWSELQQEKGSFEELARYGLALPRKGKVQRPQFMAQQFEKLIDYSAENSDLPLRKQILFEELMLHLQKEAFQIPSAKERVAWEAARYLQEHYKEKTTIKDLSLALHYHQDYVSRCMQQVLGVTPAQYTNRVRMTEAKRLLSSTNDKMGVIAETVGMEDPTYFSKLFKQIEGISPIEYRKIVSRKVQ	not soluble
LKRLFFTVSLAVVLSACQALPLNQSQAIVHDEYVSSGDLLPIEAITTIDGEELDLQQLGKRKLVILFATWCHDSNRLLKALNSSPLLEMEGIEIVAIAREEDLETVTAWRDKRGIKVALAVDNDRSIYRRFASGGIPRLITIGENNKIIKMNLAEGEQQLAKIV	not soluble
MDKFKGAVMVGALRLFALLPWRAVQWVGTAIGWLMWKLPNRSREVARINLSKCFPELSEPELEKLVGRSLMDIGKTLTESACAWIWPAQKSINLVREVEGLEVLKDALASGKGVVGITSHLGNWEVLNHFYCSQCKPIIFYRPPKLKAVDDLLRKQRVQLGNRVAASTKEGILSVIKEVRKGGSVGIPADPEPAESAGIFVPFCGTQALTSKFVPNMLAGGKAVGVFLHAMRLPDGSGYKVVLEAAPEAMYSTDTQTSAAAMSKVVEKYVRAYPSQYMWTMKRFKK	not soluble
MVKIHPDLTTSGAGEETSSPYLTTEQESFTIWMKSLVFNTNGCTVFDSKGNIIYRVDNYNSKSCREVYLMDLSGHVLFTLRRQKFGLFKTWEGYRSSSATVESTTKLEYFRVKNNVFQVPNKDSSSSYRVNAGSCRNDEQYCYKMVTRGSSLAIEDNCGKLLAEVKRKQSINGLKLGDDVLTMMVESQVDHSFIIGLVLAHSLINCIL	soluble
MPHPCLSCGACCAYFRVSFHWSEADPALGGNVPIELTEPLRIHERVMHGTSQSHPRCIALDAEIGYRSRCTIHERRPSVCAAVPASLEFGTRSQQCDTSRRAHGLHLLTEADWAGVTNTERNPLPNELEHHHHHH	soluble
MSLKPLAYRMRPTKIEDIIGQQHLVAEDKIIGRMVQAKHLSSMILYGPPGIGKTSIATAIAGSTSIAFRKLNAVINNKKDMEIVAQEAKMSGQVILILDEVHRLDKGKQDFLLPYLENGMIILIGATTANPYHAINPAIRSRTQIFELEPLTPELIKQALERALHDEHRGLGTYSVSIDDQAMEHFAHGCGGDVRSALNALELAVLSTKESADGEIHITLETAEECLQKKSFSHDKDGDAHYDVLSAFQKSIRGSDANAALHYLARLIEAGDLESIARRLLVIAYEDIGLASPQAGPRVLNAIQTAERVGFPEARIPLANAVIELCLSPKSNSAILAIDEALADIRAGKIGDVPKHLKDAHYKGAQELGRGIDYKYPHNYDNGWVEQQYLPDPLKNKQYYKPKQTGKFESALKQVYDKLMKGIITITTDPNSSSVDKLAAALEHHHHHH	soluble
MAAQVLSGHEAAEAVYEEIRARLRSLSFTPSLRVIRLGEDPASVAYVRLKDKRARALGYRSQVEVYPEDLPEEALLERIAALNADEEVDGILVQLPLPPHIRTQRVLEAIHPLKDVDGFHPLNVGRLWSGGKGLFPCTPLGVVRLLKHYGVDLRGKEVVVVGRSNIVGKPLAGLLLREDATVTLAHSKTQDLPEVTRRAQVLVVAVGRPHLVRKEWVREGAIVVDVGVNRVEGRLLGDVHPEVAEVAFALTPVPGGVGPMTVAMLMGNTLEAALLRRHGASG	soluble
MGSDKIHHHHHHMLICATCAVERDEPAPELCPICTDERQYVPEEGQKWLTLDGLAQQGQQTVLRENEPGLIGIRTEPKVGIGQTAQLVVTHEGSLLWDPVGYVDDSAVNAALERGPVLAIAASHPHMFGVQVEWSHRLGGVPVLVADADRRWLGRNDPVIEYWSGSHTIAEGLTLHQTGGHFPGSAVVHWAAGAAGRGVLLTGDSVYPNPDRRSISFMRSYPNHLPLSGAVALRIAAQLGELEFDRIYGNFNNVIASGAKAALHDSAQRHAAWARGDFDHLT	not soluble
MSQMELIKKLREATGAGMMDVKRALEDAGWDEEKAVQLLRERGAMKAAKKADREAREGIIGHYIHHNQRVGVLVELNCETDFVARNELFQNLAKDLAMHIAMMNPRYVSAEEIPAEELEKERQIYIQAALNEGKPQQIAEKIAEGRLKKYLEEVVLLEQPFVKDDKVKVKELIQQAIAKIGENIVVRRFCRFELGA	soluble
MGSDKIHHHHHHMKKNGTTNSNGGNLGFEADLFKAADKLRGNMEPSDYKHVALGLIFLKYISDAFEARHQALLAEDPRAAEDRDEYLADNVFWVPKEARWSHLRANARRPEIGLLIDEAMRAIEKENESLKGVLPKDYARPALNKVMLGELIDLISGIALGEEGDRSKDILGRVYEYFLGQFAGAEGKRGGEFYTPRSVVRVLVEMLEPYHGRVYDPCCGSGGMFVQSEKFVQEHGGRIGDIAIYGQESNYTTWRLCKMNLAVRGIDADIRWNNEGSFHKDELRDLKADFILANPPFNISDWGGERLREDVRWSFGVPPVGNANYAWLQHIHHHLAPNGTAGVVLANGSMSSNQSGEGEIRKAMVEADVVDCMVALPGQLFYSTQIPACLWFLARNKNPGKGLRDRRGQVLFIDARKLGVLVDRTRRELTDAEIQKIADTYHAWRGEPDAGEYQDVPGFCKSATLEEIRKHGFVLTPGRYVGAAQQEDDGEPFEEKMARLAAQWREQRAAAAKLDAAIEANLKELGYGG	not soluble
